Target: human cyclic nucleotide-gated channel β1-subunit, wild type (human) (UniProt Q14028)
Assay: HEK 293 plasma membrane recruitment assay

human cyclic nucleotide-gated channel β1-subunit, wild type (human), sequence (Q14028 whole entry): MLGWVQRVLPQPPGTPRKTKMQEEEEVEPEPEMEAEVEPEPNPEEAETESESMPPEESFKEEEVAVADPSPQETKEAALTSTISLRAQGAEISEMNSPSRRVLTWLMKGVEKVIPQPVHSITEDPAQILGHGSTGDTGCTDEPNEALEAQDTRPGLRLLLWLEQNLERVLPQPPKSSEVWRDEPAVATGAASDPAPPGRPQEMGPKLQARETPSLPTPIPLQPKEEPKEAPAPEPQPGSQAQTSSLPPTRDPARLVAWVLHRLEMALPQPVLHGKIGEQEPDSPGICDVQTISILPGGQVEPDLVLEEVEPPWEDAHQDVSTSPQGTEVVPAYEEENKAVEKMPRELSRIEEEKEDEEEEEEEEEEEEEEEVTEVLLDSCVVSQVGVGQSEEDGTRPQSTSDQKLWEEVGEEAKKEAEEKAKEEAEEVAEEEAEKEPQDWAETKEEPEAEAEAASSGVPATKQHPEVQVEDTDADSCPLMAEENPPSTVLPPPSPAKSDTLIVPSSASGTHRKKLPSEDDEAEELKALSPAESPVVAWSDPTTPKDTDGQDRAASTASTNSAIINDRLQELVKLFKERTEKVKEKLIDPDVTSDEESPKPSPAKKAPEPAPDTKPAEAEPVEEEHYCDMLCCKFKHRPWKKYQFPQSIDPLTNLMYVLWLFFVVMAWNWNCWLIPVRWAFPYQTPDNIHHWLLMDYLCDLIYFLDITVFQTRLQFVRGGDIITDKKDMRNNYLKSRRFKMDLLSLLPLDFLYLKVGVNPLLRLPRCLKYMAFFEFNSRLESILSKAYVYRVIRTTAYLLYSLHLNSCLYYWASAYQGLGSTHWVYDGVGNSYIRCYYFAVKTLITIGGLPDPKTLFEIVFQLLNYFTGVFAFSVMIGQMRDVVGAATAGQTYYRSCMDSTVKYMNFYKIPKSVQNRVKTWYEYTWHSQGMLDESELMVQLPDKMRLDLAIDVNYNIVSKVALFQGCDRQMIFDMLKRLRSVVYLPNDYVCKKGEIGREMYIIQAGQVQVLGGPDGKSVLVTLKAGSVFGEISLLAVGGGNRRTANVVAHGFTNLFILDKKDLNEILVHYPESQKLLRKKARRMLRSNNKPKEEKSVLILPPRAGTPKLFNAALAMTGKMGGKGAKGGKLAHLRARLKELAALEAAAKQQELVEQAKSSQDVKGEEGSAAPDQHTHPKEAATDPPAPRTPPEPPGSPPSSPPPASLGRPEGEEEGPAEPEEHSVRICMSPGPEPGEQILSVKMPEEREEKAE

- cells with complete recruitment: 65 % of cells
Substance: ankyrin-G fused to green fluorescent protein, O70511 1-2622

Reference: paper PMC2792576
